# Reference: paper PMC1891329
# Target: full-length MglA (residues 1–205) fused to Zif or to the ω subunit of E. coli RNAP (F. tularensis subspecies holarctica LVS)
# Assay: two-hybrid
substance,measurement,value
full-length F. tularensis LVS SspA (residues 1–210) fused to the ω subunit of E. coli RNAP or to Zif (natural protein),fold activation of the lacZ reporter,22 fold
